In assay [1] the target is T1, recombinant human TIGIT (His Tag) (human, UniProt Q495A1 22-141).
T1 construct: Coated antigen of the ELISA; not shown: His tag
T1 sequence (looked up): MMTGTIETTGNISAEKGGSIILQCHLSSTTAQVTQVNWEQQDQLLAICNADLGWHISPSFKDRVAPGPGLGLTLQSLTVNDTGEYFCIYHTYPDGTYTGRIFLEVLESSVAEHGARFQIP
Kind of assay: ELISA, relative binding activity, sample kept at 40 C for 0 weeks. The procedure: (§1) The antibody samples were exchanged into a pH 5.5 buffer system (20 mM histidine-histidine hydrochloride buffer, 230 mM trehalose) with the concentration of the samples controlled at about 5 mg/mL, and the buffer was aliquoted into vials at 500 μL/vial. The vials were placed in a 40° C. incubator to test stability at 0 W, 2 W and 4 W. Samples were sent for analysis according to Table 2. Stability was assessed by the following parameters: (a) the content of antibody monomers, aggregates or fragments determined by SEC-HPLC (size exclusion chromatography); (b) the molecular weight of the antibody determined by CE-SDS (sodium dodecyl sulfate capillary electrophoresis); and (c) the bioactivity of the antibody determined by an ELISA or reporter gene assay.

The target of assay [2] is T2, recombinant human HX1 hCD112R Fc (human, UniProt Q6DKI7 41-171, limits assumed).
T2 construct: Coated antigen of the ELISA (Suzhou Junmeng); also called human CD112R; not shown: Fc part
T2 sequence (looked up): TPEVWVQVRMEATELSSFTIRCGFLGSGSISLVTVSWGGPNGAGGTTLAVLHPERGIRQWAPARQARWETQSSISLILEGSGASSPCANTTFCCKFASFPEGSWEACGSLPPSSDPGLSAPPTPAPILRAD
The assay is described as above. The procedure:
as §1

The target of assay [3] is T3, human CD112R-mFc protein (human, UniProt Q6DKI7 41-171, limits assumed).
T3 construct: also called human CD112R protein; not shown: mouse Fc (mFc)
T3 sequence (looked up): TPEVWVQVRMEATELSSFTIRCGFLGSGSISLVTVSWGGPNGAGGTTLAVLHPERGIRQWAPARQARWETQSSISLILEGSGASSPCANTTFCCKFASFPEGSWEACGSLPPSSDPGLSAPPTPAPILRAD
The assay can be described thus: flow cytometry, blocking of 1 ug/mL CD112R-mFc binding to CHO hCD112 cells. The method, then:
CHO hCD112 cells (Chinese hamster ovary cells, human CD112 positive) were incubated with different concentrations of the bispecific antibodies JS-1, JS-3, JS-5 and JS-9 and 1 μg/mL human CD112R-mFc protein at 4° C. for 30 min, then washed twice and incubated with a fluorescence-labeled anti-mouse IgG secondary antibody (1:200) in a dark place at 4° C. for 30 min. Finally, the cells were collected using a flow cytometer (BD Canto II), and the fluorescent antibodies bound to the cell surface were detected. Raw data were analyzed using FlowJo to obtain MFI values, antibody dose-dependent binding curves (FIG. 4) were fitted using GraphPad, and IC50 was calculated. The positive controls were hu52 (a recombinant humanized anti-CD112R monoclonal antibody) and JS-Ref (Hengrui) (an anti-TIGIT/CD112R bispecific antibody of Hengrui, expressed and purified according to the sequence of the patent WO2021180205), and the negative control was an anti-KLH-hIgG1 antibody.
In general terms: In flow cytometry, cells or beads pass a laser one at a time.

For assay [4], the target named is T1, recombinant human TIGIT (His Tag). The assay can be described thus: ELISA, relative binding activity, sample kept at 40 C for 4 weeks. The method, then:
as §1

In assay [5] the target is T2, recombinant human HX1 hCD112R Fc. The description is as above. The procedure: as §1
The target in assay [6] is T1, recombinant human TIGIT (His Tag). The assay can be described thus: ELISA, relative binding activity, sample kept at 40 C for 2 weeks. The procedure:
as §1
Background: In an ELISA, binding on a coated surface is turned into a signal by an enzyme label.

The target of assay [7] is T2, recombinant human HX1 hCD112R Fc. Described as above. The method, then: as §1
Assay [8] shares this target. Kind of assay: ELISA, plate coated with recombinant human HX1 hCD112R Fc, detection with HRP anti-human IgG4 Fc; unit taken from the concentration axis [3a]. The method, then: 2. Procedures [0255] a. A 96-well plate was coated with 1.0 μg/mL recombinant human HX1 hCD112R Fc (Suzhou Junmeng) as the antigen at 100 μL/well and incubated at 37° C. for 1.5 h. [0256] b. The plate was washed 4 times with 300 μL/well 1×PBST, and 2% BSA was added at 200 μL/well. The plate was blocked at 37° C. for 1.5 h. [0257] c. The plate was washed 4 times with 300 μL/well 1×PBST, and serial dilutions of the bispecific antibodies JS-1,3,5,9 and a negative control: antibody (anti-KLH hIgG4) (initial concentration 3.0 μg/mL, 3-fold serially diluted to 12 concentration points, 100 μL/well) were added. The plate was incubated at 37° C. for 1 h. [0258] d. The plate was washed 4 times with 300 μL/well 1×PBST. [0259] e. 5000-fold diluted horseradish peroxidase (HRP)-conjugated mouse anti-human IgG4 Fc antibody (Southern Biotech, 9200-05) was added at 100 μL/well, and the plate was incubated at 37° C. for 1 h. [0260] f. The plate was washed 4 times with 300 μL/well 1×PBST. [0261] g. 0.1 mg/mL TMB was added at 100 μL/well, and after the plate was incubated at 37° C. for 15 min, a 2 M solution of hydrochloric acid was added at 100 μL/well to stop the reactions. […] The absorbance was measured at 450 nm/620 nm on a microplate reader, and data were analyzed using Graphpad Prism7.

B1: bispecific antibody JS-1 (IgG4) (bispecific antibody)
heavy: QVQLVQSGAEVKKPGASVKVSCKTSGYAFTEYTMHWVRQAPGKGLEWMGGINPNTGGTTYNQKFQGRVTLTVDKSSSTAYMELSSLRSEDTVVYYCAKLLRLMYYFDYWGQGTLVTVSSASTKGPSVFPLAPCSRSTSESTAALGCLVKDYFPEPVTVSWNSGALTSGVHTFPAVLQSSGLYSLSSVVTVPSSSLGTKTYTCNVDHKPSNTKVDKRVESKYGPPCPPCPAPEFLGGPSVFLFPPKPKDTLMISRTPEVTCVVVDVSQEDPEVQFNWYVDGVEVHNAKTKPREEQFNSTYRVVSVLTVLHQDWLNGKEYKCKVSNKGLPSSIEKTISKAKGQPREPQVYTLPPCQEEMTKNQVSLWCLVKGFYPSDIAVEWESNGQPENNYKTTPPVLDSDGSFFLYSRLTVDKSRWQEGNVFSCSVMHEALHNHYTQKSLSLSLGK
light: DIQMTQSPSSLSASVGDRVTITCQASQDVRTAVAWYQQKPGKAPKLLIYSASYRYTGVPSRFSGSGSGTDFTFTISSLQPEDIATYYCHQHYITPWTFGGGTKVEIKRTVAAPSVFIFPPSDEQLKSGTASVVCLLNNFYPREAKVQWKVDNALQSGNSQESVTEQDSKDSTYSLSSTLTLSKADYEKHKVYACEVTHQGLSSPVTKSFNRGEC
chain: DIVMTQSPDSLAVSLGERATINCKASQSVSNDVAWYQQKPGQPPKLLIYYVSHRFTGVPDRFSGSGSGTDFTLTISSLQAEDVAVYFCHQAYRSPWTFGCGTKLEIKGGGGSGGGGSGGGGSGGGGSEVQLVESGGGLVKPGGSLRLSCAASGFTFSSYHMSWVRQAPGKCLELVSAINSNGINTYYLDTVKGRFTISRDNAKNSLYLQMNSLRAEDTAVYYCARHEDYYGFAMDYWGQGTLVTVSSGGGGSGGGGSESKYGPPCPPCPAPEFLGGPSVFLFPPKPKDTLMISRTPEVTCVVVDVSQEDPEVQFNWYVDGVEVHNAKTKPREEQFNSTYRVVSVLTVLHQDWLNGKEYKCKVSNKGLPSSIEKTISKAKGQPREPQVCTLPPSQEEMTKNQVSLSCAVKGFYPSDIAVEWESNGQPENNYKTTPPVLDSDGSFFLVSRLTVDKSRWQEGNVFSCSVMHEALHNRFTQKSLSLSLGK
notes: Three-chain knob-into-hole format: anti-TIGIT Fab arm and anti-CD112R scFv arm, IgG4 Fc
Regarding B1, the “TIGIT binding activity Elisa (%)” value was 100% in assay [1], 97% in assay [4] and 75% in assay [6]. In addition, the “CD112R binding activity Elisa (%)” value turned out to be 101% in assay [2], 86% in assay [5] and 87% in assay [7]. The IC50 – broadly, the concentration needed to halve the response being measured – in assay [3] stood at 0.915 nM. Besides, the concentration for a half-maximal effect (EC50) (as a rule, the concentration at which the effect is half-maximal) in assay [8] stood at 4.03 ng/mL.

B2: bispecific antibody JS-3 (IgG4) (bispecific antibody)
chain 1: not shown
chain 2: DIVMTQSPDSLAVSLGERATINCKASQSVSNDVAWYQQKPGQPPKLLIYYVSHRFTGVPDRFSGSGSGTDFTLTISSLQAEDVAVYFCHQAYRSPWTFGQGTKLEIKRTVAAPSVFIFPPSDEQLKSGTASVVCLLNNFYPREAKVQWKVDNALQSGNSQESVTEQDSKDSTYSLSSTLTLSKADYEKHKVYACEVTHQGLSSPVTKSFNRGECSGGGSGGGSEGGGSEGGGSEGGGSEGGGSGGGSGEVQLVESGGGLVKPGGSLRLSCAASGFTFSSYHMSWVRQAPGKGLELVSAINSNGINTYYLDTVKGRFTISRDNAKNSLYLQMNSLRAEDTAVYYCARHEDYYGFAMDYWGQGTLVTVSSASTKGPSVFPLAPCSRSTSESTAALGCLVKDYFPEPVTVSWNSGALTSGVHTFPAVLQSSGLYSLSSVVTVPSSSLGTKTYTCNVDHKPSNTKVDKRVESKYGPPCPPCPAPEFLGGPSVFLFPPKPKDTLMISRTPEVTCVVVDVSQEDPEVQFNWYVDGVEVHNAKTKPREEQFNSTYRVVSVLTVLHQDWLNGKEYKCKVSNKGLPSSIEKTISKAKGQPREPQVCTLPPSQEEMTKNQVSLSCAVKGFYPSDIAVEWESNGQPENNYKTTPPVLDSDGSFFLVSRLTVDKSRWQEGNVFSCSVMHEALHNRFTQKSLSLSLGK
notes: Two-chain scFab/scFab knob-into-hole format, IgG4 Fc
B2: the “TIGIT binding activity Elisa (%)” value in assay [1] was 111%; in assay [4], 84%; in assay [6], 88%. Also, the “CD112R binding activity Elisa (%)” value came out at 102% in assay [2], 88% in assay [5] and 98% in assay [7]. This molecule also registered an IC50 in assay [3] of 0.696 nM. For the same molecule, in assay [8], the half-maximal effective concentration (EC50) is 4.02 ng/mL.
